Measurements taken from article PMC3437054.

What was measured:
[1] = biological target: PCNA (Saccharomyces cerevisiae) (UniProt P15873); conditions: cited from earlier work
[2] = biological target: Replication factor C (RFC-A/B/C/D/E) (Saccharomyces cerevisiae, UniProt P38630;P40339;P38629;P40348;P38251 1-861;1-323;1-340;1-353;1-354); assay: stopped-flow TAMRA fluorescence
[3] = biological target: Replication factor C (RFC-A/B/C/D/E);PCNA (wild type) (Saccharomyces cerevisiae;Saccharomyces …, UniProt P38630;P40339;P38629;P40348;P38251;P15873 1-861;1-323;1-340;1-353;1-354;1-258, |); assay: fluorescence intensity

Molecule	Kd [1] [nM]	binding result [2]	Kd [3] [nM]
RFC (from UniProt P38630)	1		
40/65-nt ptDNA-TAMRA (mixed, 3' amino linker on primer) DNA 1: ATTTCCTTCAGCAGATAGGAACCATACTGATTCACATGGC DNA 2: TAGTTAGAACCTAAGCATATTAGTAGCCATGTGAATCAGTATGGTTCCTATCTGCTGAAGGAAAT		binds	1
